Here are results for three substances from patent US20080207488A1, “Method for Detecting Peptides Comprising a Cross-B Structure” (priority 2005, published 2008).

Series [1] in a line: Stability testing of biopharmaceuticals under denaturing conditions (ThT fluorescence, tPA activation). It counts as physicochemical. To be noted: ThT at 25 μg/mL, tPA activation at 100 μg/mL. Here is the method: To mimic accelerated stability testing several therapeutics were exposed to denaturing conditions and assayed for amyloid-like properties before and after treatment by tPA activation assay at 100 μg/mL protein and ThT fluorescence enhancement assay at 25 μg/mL protein. For this purpose, 5 mg/mL Glucagon (Glucagen; Novo Nordisk Farma B.V., Alphen aan de Rijn, The Netherlands) was incubated at 37° C. in 0.01 M HCl for 48 hours. One mg/mL Etanercept (Enbrel; Wyeth Pharmaceuticals B.V., Hoofddorp, The Netherlands) in 67 mM sodium phosphate buffer, 100 mM NaCl pH 7.0 was gradually heated from 30° C. to 85° C. over a period of 12 minutes and afterwards cooled to 4° C. for 5 minutes, this treatment was repeated 4 times. Abciximab (Reopro; Centocor B.V., Leiden, The Netherlands) and Infliximab (Remicade; Schering-Plough B.V., Utrecht, The Netherlands) were incubated at 65° C. for 16 and 72 hours, respectively.

Another series addresses T1, human BiP (Homo sapiens, UniProt P11021).
T1 construct: made in house; host or cells: HEK293E cells, transient transfection, protein purified from the medium
Nature of the series: ELISA, binding of BiP to coated (mis)folded proteins. Conditions: coated protein. On the procedure:
The plates were blocked using Blocking reagent (Roche 1112589). A dilution series of the protein of interest was applied to the coated proteins and wells were subsequently washed using TBS-T (50 mM Tris pH 7.3, 150 mM NaCl and 0.1% Tween20). Bound protein is detected by the FLAG-tag using 1:3000 anti-FLAG-HRP (Sigma A-8592) in PBS-T, or by 1:1000 Ni-NTA-HRP (Qiagen 34530) in PBS-T. The HRP reaction Is performed using the TMB substrate (Biosource 4501103 or Tebu Bio 101TMB100-500), stopped using 10% H2SO4 and absorbance was measured at 450 nm.

The target in another series is T2, LRP cl-IV (Homo sapiens, UniProt Q07954).
T2 construct: Cluster IV of the low-density lipoprotein (LDL) receptor-related protein (LRP cl-IV) was cloned from complete cDNA of THP1 cells; made in house; host or cells: HEK293E/S cells; culture supernatant used without purification
T2 sequence (Q07954 3332-3778 limits assumed): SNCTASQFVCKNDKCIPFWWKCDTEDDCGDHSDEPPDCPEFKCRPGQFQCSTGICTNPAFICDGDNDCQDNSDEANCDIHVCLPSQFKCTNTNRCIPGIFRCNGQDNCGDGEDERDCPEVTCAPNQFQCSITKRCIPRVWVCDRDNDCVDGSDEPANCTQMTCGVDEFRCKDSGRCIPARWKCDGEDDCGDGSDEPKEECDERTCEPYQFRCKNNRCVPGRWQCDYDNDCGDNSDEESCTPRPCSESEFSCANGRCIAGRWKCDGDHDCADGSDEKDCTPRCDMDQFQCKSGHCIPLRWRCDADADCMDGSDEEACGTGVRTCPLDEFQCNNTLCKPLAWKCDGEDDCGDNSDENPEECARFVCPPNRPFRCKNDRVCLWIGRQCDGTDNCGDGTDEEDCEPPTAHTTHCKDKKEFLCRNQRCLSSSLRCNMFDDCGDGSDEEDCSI
Nature of the series: ELISA, binding of LRP cluster IV to misfolded proteins. To be noted: 5 μg/ml coated protein. On the procedure: Binding of LRP cl-IV to misfolded protein was determined using an enzyme linked immuno sorbent assay (ELISA) set-up. For this purpose 50 μl of a 5 μg/ml solution of BSA, BSA-AGE, Hb or Hb-AGE or coat buffer (for negative control) was coated for 1 h with motion. Proteins were diluted in coat buffer (100 mM NaHCO3 pH 9.6). The BSA and Hb controls were prepared freshly by dissolving proteins at 1 mg/ml in PBS by rolling for 10 minutes on a roller bank at room temperature, 10 minutes incubation at 37° C. followed by again 10 minutes incubation at the roller bank. Coat controls were performed with anti-glycated protein antibody 4B5, anti-albumin antibody or anti Hb antibody. After coating the plates were washed twice with PBS/0.1% Tween-20 (v/v) and blocked with 300 μl/well blocking reagent (Roche Diagnostics, Almere, The Netherlands) for 1 h at room temperature with motion. […] After five washes with wash buffer binding of antibody was assessed with a secondary antibody. […] After 5 washes with wash buffer, binding of anti-FLAG antibody and secondary antibodies was assessed with 100 μl/well TMB substrate (ready to use from Tebu Bio). […] After ˜2 minutes absorbance was read at 450 nm.

Series [2] is described as follows: ThT fluorescence of LPS-protein mixtures. The format is physicochemical. To be noted: for ThT fluorescence enhancement vs protein in buffer only: 1 mg ml^−1 protein. On the procedure: (§1) Fluorescence of ThT-protein/peptide adducts was measured as follows. […] Fluorescence was measured at 485 nm upon excitation at 435 nm. Background signals from buffer, buffer with ThT and protein/peptide solution without ThT were subtracted from corresponding measurements with protein solution incubated with ThT. […] Fluorescence was measured in triplicate on a Hitachi F-4500 fluorescence spectrophotometer (Ltd., Tokyo, Japan).
Subsequently, the ability to enhance ThT fluorescence was determined with 40× diluted solution, as described above. […]

Series [3] in a line: ThT fluorescence of CpG-ODN-protein mixtures. It counts as physicochemical. To be noted: for increase in ThT fluorescence / ThT fluorescence enhancement: 1 mg ml^−1 protein; for increase in ThT fluorescence: 30 min. at room temperature (FIG. 4D, E); for ThT fluorescence enhancement: overnight. On the procedure:
as §1
Enhancement of ThT fluorescence was measured similarly as described above. […]

T1 sequence (P11021 19-654): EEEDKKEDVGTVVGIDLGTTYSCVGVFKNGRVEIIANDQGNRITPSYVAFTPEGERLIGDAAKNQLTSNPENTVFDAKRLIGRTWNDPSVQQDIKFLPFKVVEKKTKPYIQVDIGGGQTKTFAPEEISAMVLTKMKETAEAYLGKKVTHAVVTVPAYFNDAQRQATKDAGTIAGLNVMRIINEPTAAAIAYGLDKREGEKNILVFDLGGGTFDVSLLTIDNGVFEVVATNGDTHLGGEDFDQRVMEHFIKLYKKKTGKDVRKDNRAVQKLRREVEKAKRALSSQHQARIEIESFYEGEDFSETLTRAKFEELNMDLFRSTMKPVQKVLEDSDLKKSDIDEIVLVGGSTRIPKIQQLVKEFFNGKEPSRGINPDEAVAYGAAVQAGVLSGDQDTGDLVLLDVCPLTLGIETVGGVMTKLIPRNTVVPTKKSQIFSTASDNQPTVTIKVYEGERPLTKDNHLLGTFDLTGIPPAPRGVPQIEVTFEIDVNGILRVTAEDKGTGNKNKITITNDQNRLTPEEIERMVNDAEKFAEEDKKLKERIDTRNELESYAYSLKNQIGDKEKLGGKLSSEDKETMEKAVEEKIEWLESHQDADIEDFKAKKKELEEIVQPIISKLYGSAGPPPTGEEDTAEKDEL

Take “Abciximab: abciximab, an inhibitor of blood platelet aggregation (ReoPro, Centocor)”: the “amyloid-like properties after exposure to harsh denaturing conditions (low pH, heat)” value in series [1] is “amyloid-like properties are adopted”.
Consider “albumin-AGE: advanced glycation end-product modified bovine serum albumin”, for which the “binding of BiP (detection anti-FLAG-HRP)” value with human BiP was “high affinity”. Also, the “binding of BiP (detection Ni-NTA-HRP)” value in the series with human BiP (FIG. 7A) is “low affinity”. Besides, the “binding of LRP cl-IV” value with LRP cl-IV is on record as “binds specifically”.
Turning to lysozyme: chicken egg-white lysozyme, the ThT fluorescence enhancement entry in series [2] (200 μg ml^−1 LPS (FIG. 4D, E)) is recorded as “approximately 5 times”; in series [2] (400 μg ml^−1 LPS (FIG. 4D, E)), approximately 11 times; in series [2] (600 μg ml^−1 LPS (FIG. 4D, E)) it was approximately 18 times; in series [2] (1 mg ml^−1 protein exposed to 600 μg ml^−1 LPS (FIG. 4C)), “approximately 10 times”; in series [3] (10.7 μg ml^−1 CPG-ODN), 1.1 factor; in series [3] (21.4 μg ml^−1 CPG-ODN), 1.2 factor. For the same substance, the ThT fluorescence enhancement in series [3] (42.8 μg ml^−1 CPG-ODN) was 1.4 factor. For the same substance, the “ThT fluorescence enhancement vs protein in buffer only” value in series [2] (10 μg ml^−1 LPS (FIG. 4B)) came to 1.1 times; in series [2] (25 μg ml^−1 LPS (FIG. 4B)), 1.3 times; in series [2] (100 μg ml^−1 LPS (FIG. 4B)), 1.6 times; in series [2] (200 μg ml^−1 LPS (FIG. 4B)), 2.3 times; in series [2] (600 μg ml^−1 LPS (FIG. 4B)), 5.7 times; in series [2] (1200 μg ml^−1 LPS (FIG. 4B)) it was 13.1 times. For the same substance, in series [3] (1 mg ml^−1 protein exposed to 21.4 μg ml^−1 CPG-ODN (FIG. 4F)), the “increased ThT fluorescence” value is on record as “no effect”. Also, the “increase in ThT fluorescence” value in series [3] (10.4 μg ml^−1 CPG-ODN) is recorded as “approximately 8 times”; in series [3] (21.7 μg ml^−1 CPG-ODN) it was approximately 7 times.
